The text below walks through data of EP4714976A1 (Sunshine Lake Pharma Co., Ltd., dated 2026).

The target of assay [1] is T1, human FGFR2b (Kaixia Biotechnology, catalog number FGR-HM1BB) (human, UniProt P21802-3 22-378).
T1 construct: extracellular domain; bought; also called hFGFR2b; human FGFR2b protein
Description: ELISA, FGFR2b coated at 1 µg/ml. Background: An ELISA detects its analyte on a solid surface through an enzyme-linked reagent.

Assay [2] has as its target FGFR2c (acro) (UniProt P21802 22-377). In words: ELISA, antibody 10 µg/mL.
The target of assay [3] is T2, FGFR2b on KATO III cells (human, UniProt P21802-3 22-822).
T2 construct: whole, on cells; also called KATO III cells that overexpress FGFR2b
T2 sequence (P21802 other isoform, or with tags, fused parts or gaps): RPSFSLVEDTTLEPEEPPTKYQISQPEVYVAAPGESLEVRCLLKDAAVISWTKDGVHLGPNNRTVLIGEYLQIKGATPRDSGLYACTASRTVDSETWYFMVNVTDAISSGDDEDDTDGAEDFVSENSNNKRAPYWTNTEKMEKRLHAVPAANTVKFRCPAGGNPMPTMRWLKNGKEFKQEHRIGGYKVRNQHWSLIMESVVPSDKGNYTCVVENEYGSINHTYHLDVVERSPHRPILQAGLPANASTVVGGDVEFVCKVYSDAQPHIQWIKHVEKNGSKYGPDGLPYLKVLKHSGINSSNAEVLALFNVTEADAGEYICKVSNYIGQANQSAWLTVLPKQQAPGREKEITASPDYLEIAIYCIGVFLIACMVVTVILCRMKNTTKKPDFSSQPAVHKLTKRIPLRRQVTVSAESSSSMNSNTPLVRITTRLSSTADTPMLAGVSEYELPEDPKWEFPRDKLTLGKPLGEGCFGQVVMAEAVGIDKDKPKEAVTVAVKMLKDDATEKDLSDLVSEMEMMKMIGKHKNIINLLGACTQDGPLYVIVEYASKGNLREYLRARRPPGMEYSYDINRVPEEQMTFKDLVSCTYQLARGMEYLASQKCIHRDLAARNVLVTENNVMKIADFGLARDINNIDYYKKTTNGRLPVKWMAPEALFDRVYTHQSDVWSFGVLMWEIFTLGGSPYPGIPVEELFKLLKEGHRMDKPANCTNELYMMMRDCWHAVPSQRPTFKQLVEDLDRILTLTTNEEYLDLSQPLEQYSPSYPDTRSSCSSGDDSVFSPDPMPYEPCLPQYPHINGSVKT
In words: flow cytometry, KATO III cells. For orientation: Flow cytometry measures light scatter and fluorescence of single cells or particles in a stream.

For assay [4], the target named is T1, human FGFR2b (Kaixia Biotechnology, …). In words: BLI, antibody on AHC2 sensor. (In general: Biolayer interferometry detects binding as a change in optical thickness at a sensor tip.)
In assay [5] the target is T3, recombinant cynomolgus monkey FGFR2b (cynomolgus monkey).
T3 construct: extracellular domain; bought; also called cynomolgus macaque FGFR2b
In words: ELISA, antibody 1ug/mL.

Assay [6] deals with T4, extracellular domain of FGFR2c protein (Example 1) (UniProt P21802 22-377).
T4 construct: extracellular domain
T4 sequence (P21802 22-377): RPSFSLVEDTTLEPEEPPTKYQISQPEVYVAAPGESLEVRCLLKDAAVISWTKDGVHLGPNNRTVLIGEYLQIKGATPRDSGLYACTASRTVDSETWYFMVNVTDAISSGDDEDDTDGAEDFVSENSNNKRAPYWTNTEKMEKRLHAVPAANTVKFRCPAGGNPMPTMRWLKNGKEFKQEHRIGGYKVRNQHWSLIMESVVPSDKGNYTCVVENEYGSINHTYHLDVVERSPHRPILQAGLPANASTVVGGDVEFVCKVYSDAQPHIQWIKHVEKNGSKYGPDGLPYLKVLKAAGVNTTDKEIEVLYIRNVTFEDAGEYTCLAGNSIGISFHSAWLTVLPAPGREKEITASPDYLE
Description: phage ELISA.

Assay [7] addresses T4, extracellular domain of FGFR2c protein …. Description: phage ELISA. This is another data set of the same source.

T1 sequence (P21802 other isoform, or with tags, fused parts or gaps): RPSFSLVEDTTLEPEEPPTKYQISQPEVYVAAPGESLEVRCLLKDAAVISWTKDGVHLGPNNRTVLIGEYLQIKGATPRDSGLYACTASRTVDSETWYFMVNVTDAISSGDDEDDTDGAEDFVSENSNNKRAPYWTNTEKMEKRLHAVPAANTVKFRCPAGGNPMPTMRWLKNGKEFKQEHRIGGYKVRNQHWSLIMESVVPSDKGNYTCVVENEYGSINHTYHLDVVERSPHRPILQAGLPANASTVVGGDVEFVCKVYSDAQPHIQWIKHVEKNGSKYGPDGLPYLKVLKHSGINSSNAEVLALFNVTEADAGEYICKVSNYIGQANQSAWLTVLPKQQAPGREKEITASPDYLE
FGFR2c (acro), sequence (P21802 22-377): as the sequence (P21802 22-377) above

B1: 3D6 scFv-Fc (Fc fusion)
chain: QVQLQQSGAELVKPGASVKMSCKASGYTFRYYNMHWVKRTPGQGLEWIGLIYPDNGDTSYNQKFKGKATLTADTSSSTAYMQLSSLTSEDSAVYYCARGGLDYWGQGTSLTVSSGGGGSGGGGSGGGGSDIQMTQSPASLSVSVGETVTITCRASENIYSNLAWYQQKQGKSPQLLVYNAKTLADGVPSRFSGSGSGTQYSLKINSLQPEDFGSYYCQHFWSTPFTFGSGTKLELKESKYGPPCPPCPAPEAAGGPSVFLFPPKPKDTLMISRTPEVTCVVVDVSQEDPEVQFNWYVDGVEVHNAKTKPREEQFNSTYRVVSVLTVLHQDWLNGKEYKCKVSNKGLPSSIEKTISKAKGQPREPQVYTLPPSQEEMTKNQVSLTCLVKGFYPSDIAVEWESNGQPENNYKTTPPVLDSDGSFFLYSKLTVDKSRWQEGNVFSCSVMHEALHNHYTQKSLSLSLG
notes: scFv-Fc dimer
Turning to B1, the EC50 in assay [1] came out at 0.0369 µg/mL. The “OD (450 nm) value” in assay [2] stood at 0.542. The molecule further yielded an EC50 in assay [3] of 0.136 µg/mL. Further, in assay [4], the affinity, expressed as Kd, was 15 nM; the koff was 0.00114 s⁻¹; the kon stood at 75900 M⁻¹ s⁻¹. Further, the “OD (450 nm) value” in assay [5] was determined as 3.4.

B2: 1C10 scFv-Fc (Fc fusion)
chain: QVQLQQSGAELVKPGASVKMSCKASGYTFRYYNMHWVKRTPGQGLEWIGLIYPDNGDTSYNQKFKGKATLTADTSSSTAYMQLSSLTSEDSAVYYCARGGLDYWGQGTSLTVSSGGGGSGGGGSGGGGSDIVMTQSPASLSASVGETVTITCRASGNIHNYLAWYQQKQGKSPQLLVYNAKTLADGVPSRFSGSGSGTQYSLKINSLQPEDFGSYYCQHFWSTPYTFGGGTKLEMKESKYGPPCPPCPAPEAAGGPSVFLFPPKPKDTLMISRTPEVTCVVVDVSQEDPEVQFNWYVDGVEVHNAKTKPREEQFNSTYRVVSVLTVLHQDWLNGKEYKCKVSNKGLPSSIEKTISKAKGQPREPQVYTLPPSQEEMTKNQVSLTCLVKGFYPSDIAVEWESNGQPENNYKTTPPVLDSDGSFFLYSKLTVDKSRWQEGNVFSCSVMHEALHNHYTQKSLSLSLG
notes: scFv-Fc dimer
In assay [1], B2 came in with an EC50 of 0.0159 µg/mL. Further, the “OD (450 nm) value” in assay [2] worked out at 0.553. For the same molecule, the midpoint of the response in assay [3], the EC50, lay at 0.152 µg/mL. Besides, in assay [4], the Kd was found to be 11.1 nM, the koff was found to be 0.00278 s⁻¹ and the kon stood at 250000 M⁻¹ s⁻¹. For the same molecule, the “OD (450 nm) value” in assay [5] turned out to be 3.3.

B3: 3A8 scFv displayed on phage (scFv)
scFv: QVQLQQSGAELVKPGASVKMSCKASGYTFTIYNIHWVRQTPGQGLEWIGLIYPDNGDTSYNQKFKAKATLTADKSSSTAYMQLSSLTSEDSAVYYCARGGFDYWGQGTSLTVSSGGGGSGGGGSGGGGSDIVMTQSQKFMSTSVGDRVSVTCKASQNVGTNVAWYQQKPGQSPKALIYSASYRYSGVPDRFTGSGSGTDFTLTISNVQAEDLADYFCQQHYSTPYTFGGGTKLEMK
Regarding B3, in assay [6], the “OD (450 nm) value” worked out at 0.065. Moreover, the binding result in assay [7] is reported as “no binding”.

B4: 3E7 scFv displayed on phage (scFv)
scFv: QVQLQQSGAELVKPGASVKMSCKASGYTFTIYNIHWVRQTPGQGLEWIGLIYPDNGDTSYNQKFKAKATLTADKSSSTAYMQLSSLTSEDSAVYYCARGGFDYWGQGTTLTVSSGGGGSGGGGSGGGGSNIVMTQSQKFMSTSVGDRVSVTCKASQNVGTNVAWYQQKPGQSPKALIYSASYRYSGVPDRFTGSGSGTDFTLTISGVQAEDLADYYCQQHYNTPYTFGGGTKLEIK
For B4, in assay [6], the “OD (450 nm) value” was determined as 0.034. For the same molecule, in assay [7], the binding result is “no binding”.

B5: 3D7 scFv displayed on phage (scFv)
scFv: QVQLQQSGAELVKPGASVKMSCKASGYTFSFYNMHWVKRTPGRGLEWIGLIYPDNGDTSYNQKFKGKATLTADTSSSTAYMQLSSLTSEDSAVYYCARGGLDYWGQGTSLTVSSGGGGSGGGGSGGGGSEIVLTQSPASLAVSLGQRATISCKASQSVDYDGDSYMNWYQQKPGQPPKLLIYGISNRFSGVPDRFSGSGSGTDFTLKISTIKPEDLGMYYCLQGTHQPYTFGGGTKLEIK
Take B5: the “OD (450 nm) value” in assay [6] came out at 0.037.

B6: 2B1 scFv displayed on phage (scFv)
scFv: EVQLQQSGAELVKPGASVKMSCKASGYTFASYNLHWVKQTPGQGLEWIGLIYPENGDTSYNQKFKGKATLTADKSSSTAYIQLSSLTSEDSAVYFCARGGFDYWGQGTSLTVSSGGGGSGGGGSGGGGSDIQMIQSPASLSVSVGETVTITCRASENIYSNLAWYQQKQGKSPQLLVYNAKTLADGVPSRFSGSGSGTQYSLKINSLQPEDFGSYYCQHFWSTPYTFGGGTKLEIK
With B6, the “OD (450 nm) value” in assay [6] came to 0.049. In addition, the binding result in assay [7] is given as “no binding”.

B7: 3H6 scFv displayed on phage (scFv)
scFv: QVQLQQSGAELVKPGASVKMSCKASGYTFSFYNIHWVRQTPGQGLEWIGLIYPDNGDTSYNQKFKAKATLTADKSSSTAYMQLSSLTSEDSAVYYCARGGFDYWGQGTTLTVSSGGGGSGGGGSGGGGSDIQMTQSPASLSASVGETVTITCRASENIYSYLAWYQQKQGKSPQLLVYNAKTLAEGVPSRFSGSGSGTQFSLKINSLQPEDFGSYYCQHHYGTPYTFGGGTKLEMK
For B7, the “OD (450 nm) value” in assay [6] worked out at 0.062. Also, the binding result in assay [7] is reported as “no binding”.

B8: 3H9 scFv-Fc (Fc fusion)
chain: EIQLQQSGAELVKPGASVKMSCKASGYTFSFYNMHWVKRTPGQGLEWIGLIYPDNGDTSYNQKFKGKATLTADTSSSTAYMQLSSLTSEDSAVYYCARGGLDYWGQGTTLTVSSGGGGSGGGGSGGGGSDIVLTQSPASLSVSVGETVTITCRASENIYSNLAWYQQKQGKSPQLLVYAATNLADGVPSRFSGSGSGTQYSLKINSLQSEDFGSYYCQHFWGTPYTFGGGTKLELKESKYGPPCPPCPAPEAAGGPSVFLFPPKPKDTLMISRTPEVTCVVVDVSQEDPEVQFNWYVDGVEVHNAKTKPREEQFNSTYRVVSVLTVLHQDWLNGKEYKCKVSNKGLPSSIEKTISKAKGQPREPQVYTLPPSQEEMTKNQVSLTCLVKGFYPSDIAVEWESNGQPENNYKTTPPVLDSDGSFFLYSKLTVDKSRWQEGNVFSCSVMHEALHNHYTQKSLSLSLG
notes: scFv-Fc dimer
For B8, the EC50 in assay [1] amounted to 0.0278 µg/mL; in assay [3] it was 0.161 µg/mL. In addition, the “OD (450 nm) value” in assay [2] amounted to 0.45; in assay [5], 3.29. The same molecule registered a Kd in assay [4] of 5.69 nM. Moreover, the koff in assay [4] worked out at 0.00152 s⁻¹. For the same molecule, in assay [4], the on-rate constant (kon) was determined as 267000 M⁻¹ s⁻¹.

B9: 1A3 scFv displayed on phage (scFv)
scFv: QVQLQQPGAELVKPGASVKMSCKASGYTFASYNLHWVKQTPGQGLEWIGLIYPENGDTSYNQKFKGKATLTADKSSSTAYIQLSSLTSEDSAVYFCARGGFDYWGQGTTLTVSQGGGGSGGGGSGGGGSDIQMTQSPASLSASVGETVTITCGASENIYGALNWYQRKQGKSPQLLIYGATNLADGMSSRFSGSGSGRQYSLKISSLHPDDVATYYCQNVLSTPYTFGGGTKLEIK
As to B9, the “OD (450 nm) value” in assay [6] came to 0.212.

B10: 3B4 scFv-Fc (Fc fusion)
chain: EVQLQQSGADLVKPGASVKMSCKASGYTFSYYNMHWVRRTPGQGLEWIGLIYPDNGDTSYNQKFKGKATLTADTSSSTAYMQLSSLTSEDSAVYYCARGGLDYWGQGTTLTVSSGGGGSGGGGSGGGGSDIQMIQSPASMSASVGETVTITCGASENIYGALNWYQRKQGKSPQLLIYGATNLADGMSSRFSGSGSGRQYSLKISSLHPDDVATYYCQNVLSTPYTFGGGTKLEMKESKYGPPCPPCPAPEAAGGPSVFLFPPKPKDTLMISRTPEVTCVVVDVSQEDPEVQFNWYVDGVEVHNAKTKPREEQFNSTYRVVSVLTVLHQDWLNGKEYKCKVSNKGLPSSIEKTISKAKGQPREPQVYTLPPSQEEMTKNQVSLTCLVKGFYPSDIAVEWESNGQPENNYKTTPPVLDSDGSFFLYSKLTVDKSRWQEGNVFSCSVMHEALHNHYTQKSLSLSLG
notes: scFv-Fc dimer
Turning to B10, the figures for the EC50 in assay [1] and in assay [3] were 0.0166 µg/mL and 0.168 µg/mL, respectively. Also, the “OD (450 nm) value” in assay [2] came to 0.327; in assay [5], 3.32. In assay [4], this molecule gave a Kd of 6.28 nM. The molecule also came in with a koff in assay [4] of 0.00195 s⁻¹. The kon in assay [4] is 311000 M⁻¹ s⁻¹.

By EC50 is commonly meant the concentration at which the effect is half-maximal. One may read the Kd as a measure of binding affinity in units of concentration. One may read the koff as the first-order rate constant of dissociation. In general, kon refers to the second-order rate constant of association.
